# Data: paper PMC2722910
# System: CC(C)C[C@H](NC(=O)[C@H](CO)NC(=O)[C@H](C)NC(=O)[C@H](CCCNC(=N)N)NC(=O)[C@H](CCCNC(=N)N)NC(=O)[C@@H](N)CC(C)C)C(=O)NCC(=O)O
# Test: purified protein
# Settings: Mg2+, ATP
substance,measurement,value
cAMP-dependent kinase (PKA) catalytic subunit (Homo sapiens),kcat,8.5 ± 0.5 s⁻¹
